Measured values reported in publication PMC10784468 (Nature Communications, 2024).
Values joined by “and” are separate entries in the source; they are usually repeats but may differ in a detail not shown here. Identical values can stand only once. Like-named read-outs stand apart in the source and are kept apart here. Positions of bridges follow the written chain, without caps; N, C: chain ends. Residues, ends and D or L forms follow the SMILES beside them. *: point of attachment. X1 = O=C(O)c1ccc(-c2c3nc(c(-c4ccc(C(=O)O)cc4)c4ccc([nH]4)c(-c4ccc(C(=O)*)cc4)c4nc(c(-c5ccc(C(=O)O)cc5)c5ccc2[nH]5)C=C4)C=C3)cc1; X2 = O=C(O)C/C(=C/C(=O)*)C(=O)O

Columns and labels:
EJ tumor tissues [1] = experiment: Tumor ROS content detection; type: in vivo, BALB/c nude mice; conditions: 8 mg/kg i.v., versus PBS, Gi-F and Gi-F-SA
Description: EJ tumor tissues were collected under euthanasia at the end of treatment and washed with PBS for 3 times. Next, DCFH-DA fluorescence staining was carried out by Wuhan Servicebio Technology Co., Ltd.

[2] = for Plasma Drug concentration: fluorescence; for Tumor Drug concentration: tumor lysate fluorescence
Description: Moreover, ex vivo fluorescence imaging of tumor and major organs was performed to investigate the dose-dependent tumor accumulation of Gi-F-CAA (Fig. 3e and Supplementary Fig. 25). […] Subsequently, time-dependent in vivo fluorescence imaging of EJ xenograft mice was conducted to investigate the in vivo biodistribution and metabolism of Gi-F-CAA after administrated with Gi-F-CAA (8 mg/kg in 100 μL PBS). […] Representative time-dependent fluorescence images of tumor tissue lysates and plasma were acquired after intravenous administration with Gi-F-CAA (8 mg/kg in 100 μL PBS) (Fig. 3h).
Firstly, A density of 5 × 10^6 EJ cell resuspended in Matrigel were subcutaneously injected into the right hind of mice to construct EJ xenograft model. When the tumor volume reached about 200–400 mm^3, the mice were administrated with Cy labeled Gi-F (8 mg/kg in 100 μL PBS), Cy labeled Gi-F-SA (8 mg/kg in 100 μL PBS) and Cy labeled Gi-F-CAA (8 mg/kg in 100 μL PBS) by intravenous injection for in vivo fluorescence imaging at different timepoints (10 min, 20 min, 40 min, 1 h, 2 h, 4 h, 8 h, 12 h and 24 h) with in vivo imaging system (IVIS). Meanwhile, the EJ xenograft mice were sacrificed for collecting major organs and tumors to evaluate the biodistribution of Gi-F-CAA.

EJ cells = experiment: Intracellular ROS detection (DCFH-DA); type: cell-based; conditions: pH 6.5, 40 μM, 8 h
Description: Initially, EJ cells (5 × 10^5) were cultured in confocal dish with a CO2 incubator overnight at 37 °C. […] Afterwards, EJ cells were washed with PBS for 3 times and replaced with culture mediums.

EJ tumor tissues [3] = experiment: Tumor iron content detection (Prussian blue); type: in vivo, BALB/c nude mice; conditions: 8 mg/kg i.v.
Description: EJ tumor tissues were collected under euthanasia at the end of treatment and washed with PBS for 3 times. Afterwards, the DAB-enhanced Prussian blue iron staining was performed with Wuhan Servicebio Technology Co., Ltd.

[4] = EJ xenograft mice, i.v. 8 mg/kg, 0.017 h, mice 1
[5] = EJ xenograft mice, i.v. 8 mg/kg, 0.017 h, mice 2
[6] = EJ xenograft mice, i.v. 8 mg/kg, 0.017 h, mice 3
[7] = EJ xenograft mice, i.v. 8 mg/kg, 0.083 h, mice 1
[8] = EJ xenograft mice, i.v. 8 mg/kg, 0.083 h, mice 2
[9] = EJ xenograft mice, i.v. 8 mg/kg, 0.083 h, mice 3
[10] = EJ xenograft mice, i.v. 8 mg/kg, 0.167 h, mice 1
[11] = EJ xenograft mice, i.v. 8 mg/kg, 0.167 h, mice 2
[12] = EJ xenograft mice, i.v. 8 mg/kg, 0.167 h, mice 3
[13] = EJ xenograft mice, i.v. 8 mg/kg, 0.25 h, mice 1
[14] = EJ xenograft mice, i.v. 8 mg/kg, 0.25 h, mice 2
[15] = EJ xenograft mice, i.v. 8 mg/kg, 0.25 h, mice 3
[16] = EJ xenograft mice, i.v. 8 mg/kg, 0.5 h, mice 1
[17] = EJ xenograft mice, i.v. 8 mg/kg, 0.5 h, mice 2
[18] = EJ xenograft mice, i.v. 8 mg/kg, 0.5 h, mice 3
[19] = EJ xenograft mice, i.v. 8 mg/kg, 0.75 h, mice 1
[20] = EJ xenograft mice, i.v. 8 mg/kg, 0.75 h, mice 2
[21] = EJ xenograft mice, i.v. 8 mg/kg, 0.75 h, mice 3
[22] = EJ xenograft mice, i.v. 8 mg/kg, 1 h, mice 1
[23] = EJ xenograft mice, i.v. 8 mg/kg, 1 h, mice 2
[24] = EJ xenograft mice, i.v. 8 mg/kg, 1 h, mice 3
[25] = EJ xenograft mice, i.v. 8 mg/kg, 2 h, mice 1
[26] = EJ xenograft mice, i.v. 8 mg/kg, 2 h, mice 2
[27] = EJ xenograft mice, i.v. 8 mg/kg, 2 h, mice 3
[28] = EJ xenograft mice, i.v. 8 mg/kg, 4 h, mice 1
[29] = EJ xenograft mice, i.v. 8 mg/kg, 4 h, mice 2
[30] = EJ xenograft mice, i.v. 8 mg/kg, 4 h, mice 3
[31] = EJ xenograft mice, i.v. 8 mg/kg, 8 h, mice 1
[32] = EJ xenograft mice, i.v. 8 mg/kg, 8 h, mice 2
[33] = EJ xenograft mice, i.v. 8 mg/kg, 8 h, mice 3
[34] = EJ xenograft mice, i.v. 8 mg/kg, 12 h, mice 1
[35] = EJ xenograft mice, i.v. 8 mg/kg, 12 h, mice 2
[36] = EJ xenograft mice, i.v. 8 mg/kg, 12 h, mice 3
[37] = EJ xenograft mice, i.v. 8 mg/kg, 24 h, mice 1
[38] = EJ xenograft mice, i.v. 8 mg/kg, 24 h, mice 2
[39] = EJ xenograft mice, i.v. 8 mg/kg, 24 h, mice 3

CC(C)C[C@H](NC(=O)c1ccc(-c2c3nc(c(-c4ccc(C(=O)O)cc4)c4ccc([nH]4)c(-c4ccc(C(=O)O)cc4)c4nc(c(-c5ccc(C(=O)O)cc5)c5ccc2[nH]5)C=C4)C=C3)cc1)C(=O)N[C@@H](CCCCNC(=O)/C=C(/CC(=O)O)C(=O)O)C(=O)N[C@@H](CC(C)C)C(=O)N[C@@H](CCCCN)C(=O)N[C@@H](CC(C)C)C(=O)N[C@@H](CCCCNC(=O)/C=C(/CC(=O)O)C(=O)O)C(=O)NCC(=O)N[C@@H](C)C(=O)N[C@H]1CSSC[C@@H](C(=O)N2CCC[C@H]2C(=O)N[C@H](C(=O)O)C(C)C)NC(=O)[C@@H]2CCCN2C(=O)[C@H](Cc2ccc(O)cc2)NC(=O)[C@H](CC(C)C)NC(=O)[C@@H]2CCCN2C(=O)[C@H](CC(C)C)NC(=O)[C@H](Cc2c[nH]c3ccccc23)NC(=O)[C@H](CC(N)=O)NC1=O [Gi-F-CAA] (X1-LK(X2)LKLK(X2)GACNWLPLYPCPV-OH; disulfide 9-17; C-terminus assumed)
ROS levels of tumor tissues (EJ tumor tissues [1]): elevation
blood circulation half-life (t1/2) ([2]; EJ xenograft mice, i.v. 8 mg/kg in 100 μL PBS, plasma fluorescence, n = 3 mice): 1.03 ± 0.192 h
Plasma Drug concentration [2, 4]: 33.86 µM
Plasma Drug concentration [2, 5]: 27.32 µM
Plasma Drug concentration [2, 6]: 28.25 µM
Plasma Drug concentration [2, 7]: 31.76 µM
Plasma Drug concentration [2, 8]: 25.29 µM
Plasma Drug concentration [2, 9]: 26.44 µM
Plasma Drug concentration [2, 10]: 24.34 µM
Plasma Drug concentration [2, 11]: 19.45 µM
Plasma Drug concentration [2, 12]: 20.15 µM
Plasma Drug concentration [2, 13]: 19.65 µM
Plasma Drug concentration [2, 14]: 15.52 µM
Plasma Drug concentration [2, 15]: 16.27 µM
Plasma Drug concentration [2, 16]: 15.69 µM
Plasma Drug concentration [2, 17]: 12.64 µM
Plasma Drug concentration [2, 18]: 13.24 µM
Plasma Drug concentration [2, 19]: 14.64 µM
Plasma Drug concentration [2, 20]: 11.89 µM
Plasma Drug concentration [2, 21]: 12.38 µM
Plasma Drug concentration [2, 22]: 13.02 µM
Plasma Drug concentration [2, 23]: 10.61 µM
Plasma Drug concentration [2, 24]: 11.06 µM
Plasma Drug concentration [2, 25]: 7.79 µM
Plasma Drug concentration [2, 26]: 8.53 µM
Plasma Drug concentration [2, 27]: 9.07 µM
Plasma Drug concentration [2, 28]: 6.64 µM
Plasma Drug concentration [2, 29]: 6.59 µM
Plasma Drug concentration [2, 30]: 6.96 µM
Plasma Drug concentration [2, 31]: 3.65 µM
Plasma Drug concentration [2, 32]: 4.12 µM
Plasma Drug concentration [2, 33]: 4.41 µM
Plasma Drug concentration [2, 34]: 2.66 µM
Plasma Drug concentration [2, 35]: 3.28 µM
Plasma Drug concentration [2, 36]: 3.5 µM
Plasma Drug concentration [2, 37]: 1.38 µM
Plasma Drug concentration [2, 38]: 1.99 µM
Plasma Drug concentration [2, 39]: 2.17 µM
Tumor Drug concentration [2, 4]: 11.93 µM
Tumor Drug concentration [2, 5]: 13.59 µM
Tumor Drug concentration [2, 6]: 9.61 µM
Tumor Drug concentration [2, 7]: 13.61 µM
Tumor Drug concentration [2, 8]: 15.1 µM
Tumor Drug concentration [2, 9]: 10.98 µM
Tumor Drug concentration [2, 10]: 14.15 µM
Tumor Drug concentration [2, 11]: 15.1 µM
Tumor Drug concentration [2, 12]: 11.74 µM
Tumor Drug concentration [2, 13]: 15.43 µM
Tumor Drug concentration [2, 14]: 16.04 µM
Tumor Drug concentration [2, 15]: 12.46 µM
Tumor Drug concentration [2, 16]: 17.54 µM
Tumor Drug concentration [2, 17]: 16.74 µM
Tumor Drug concentration [2, 18]: 14.43 µM
Tumor Drug concentration [2, 19]: 16.03 µM
Tumor Drug concentration [2, 20]: 16.19 µM
Tumor Drug concentration [2, 21]: 13.02 µM
Tumor Drug concentration [2, 22]: 14.49 µM
Tumor Drug concentration [2, 23]: 15.3 µM
Tumor Drug concentration [2, 24]: 11.94 µM
Tumor Drug concentration [2, 25]: 12.9 µM
Tumor Drug concentration [2, 26]: 13.97 µM
Tumor Drug concentration [2, 27]: 10.6 µM
Tumor Drug concentration [2, 28]: 10.23 µM
Tumor Drug concentration [2, 29]: 11.8 µM
Tumor Drug concentration [2, 30]: 8.38 µM
Tumor Drug concentration [2, 31]: 7.25 µM
Tumor Drug concentration [2, 32]: 8.28 µM
Tumor Drug concentration [2, 33]: 6.04 µM
Tumor Drug concentration [2, 34]: 5.72 µM
Tumor Drug concentration [2, 35]: 6.55 µM
Tumor Drug concentration [2, 36]: 4.61 µM
Tumor Drug concentration [2, 37]: 4.93 µM
Tumor Drug concentration [2, 38]: 5.65 µM
Tumor Drug concentration [2, 39]: 3.95 µM
tumor tissue lysate signal relative to plasma ([2]; i.v. 8 mg/kg, from 1 h to 24 h): about 3 fold
level at time molar ([2]; mouse, in vivo, iv, 8 mg/kg): 16.2 µM
intracellular ROS (DCFH-DA) (EJ cells): Apparent green fluorescence
DLS size distribution, Number (%): 0.000191% and 14% and 7.4%
iron levels of tumor tissues versus other groups (EJ tumor tissues [3]): substantially higher
